For test [1], the target named is T1, HSV-1 glycoprotein B, soluble (HSV-1, UniProt P10211 31-730).
T1 construct: also called HSV-1 gB; gB HSV
Nature of the test: SPR; DC-SIGN CRD injected over immobilised HSV-1 gB. For orientation: In SPR one partner is held on a chip, and binding of the other changes the refractive index at the surface.

Test [2] deals with T2, HIV-1 gp120 (MN isolate) (HIV-1 (MN isolate), UniProt P05877 32-513, biotinylated when used as the labelled ligand on cells; unlabelled as competitor and on the SPR chip).
T2 construct: domain: gp120; Unlabelled gp120 came from the NIBSC repository; also called biotinylated HIV-1 gp120; HIV-1 Env glycoprotein 120
As to the kind of experiment: SPR (Biacore); DC-SIGN CRD injected over immobilised HIV-1 gp120; from koff/kon.

Test [3] deals with T2, HIV-1 gp120 (MN isolate). As to the kind of experiment: SPR (Biacore); DC-SIGN CRD injected over immobilised HIV-1 gp120; Langmuir fit, average.
For test [4], the target named is T3, biotinylated Bovine Serum Albumine (bovine, UniProt P02769 25-607).
T3 construct: also called BSA; biotinylated-BSA
Nature of the test: flow cytometry; biotinylated BSA on HEK 293T cells transfected with DC-SIGN, PE-streptavidin. (In flow cytometry, cells or beads pass a laser one at a time.)

In test [5] the target is T2, HIV-1 gp120 (MN isolate). Nature of the test: flow cytometry; biotinylated protein on transfected HEK 293T cells, PE-streptavidin.
For test [6], the target named is T3, biotinylated Bovine Serum Albumine. Nature of the test: flow cytometry; biotinylated BSA on HEK 293T cells transfected with DC-SIGNR, PE-streptavidin.

T3 sequence (P02769 25-607 limits assumed): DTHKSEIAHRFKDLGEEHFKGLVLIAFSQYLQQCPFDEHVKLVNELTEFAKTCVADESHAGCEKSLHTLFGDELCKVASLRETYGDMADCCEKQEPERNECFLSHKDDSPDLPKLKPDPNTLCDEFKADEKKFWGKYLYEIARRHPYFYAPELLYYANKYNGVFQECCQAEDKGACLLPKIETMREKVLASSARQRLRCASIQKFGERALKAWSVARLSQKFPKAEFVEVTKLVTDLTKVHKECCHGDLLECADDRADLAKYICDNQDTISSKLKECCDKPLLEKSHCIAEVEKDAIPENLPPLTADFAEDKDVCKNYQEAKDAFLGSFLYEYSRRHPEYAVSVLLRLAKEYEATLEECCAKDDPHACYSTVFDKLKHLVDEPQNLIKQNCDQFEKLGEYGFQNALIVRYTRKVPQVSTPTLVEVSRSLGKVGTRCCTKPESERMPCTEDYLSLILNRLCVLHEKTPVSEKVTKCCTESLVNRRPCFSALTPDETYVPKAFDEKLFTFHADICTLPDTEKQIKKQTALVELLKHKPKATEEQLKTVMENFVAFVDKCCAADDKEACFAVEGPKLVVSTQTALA

B1: recombinant soluble CRD of DC-SIGN (amino acids 254-404) (receptor)
chain: HPCPWEWTFFQGNCYFMSNSQRNWHDSITACKEVGAQLVVIKSAEEQNFLQLQSSRSNRFTWMGLSDLNQEGTWQWVDGSPLLPSFKQYWNRGEPNNVGEEDCAEFSGNGWNDDKCNLAKFWICKKSAASCSRDEEQFLSPAPATPNPPPA
notes: range 254-404; Purified on Ni-NTA and mannose-agarose; also called DC-SIGN CRD; recombinant soluble CRD domain of DC-SIGN
The term Kd denotes the equilibrium constant for the complex coming apart. Read a low Kd as higher affinity. A word on the koff: it is a measure of how fast the partners let go of each other. Low values mean a long-lived complex, high ones a short-lived complex. Usually kon stands for the rate constant with which the complex forms. A low value points to slower complex formation. Turning to B1, the binding result in test [1] is listed as “no binding (tested: 0.13 to 1 µM)”. Further, binding in test [2] was characterised by a dissociation constant (Kd) of 300 nM. In addition, in test [3], the koff is 0.00101 s⁻¹ and the kon was determined as 3330 M⁻¹ s⁻¹.

B2: human DC-SIGN (DC-Specific ICAM-Grabbing Nonintegrin) expressed at the cell surface (receptor, UniProt Q9NNX6 1-404, looked up)
chain: MSDSKEPRLQQLGLLEEEQLRGLGFRQTRGYKSLAGCLGHGPLVLQLLSFTLLAGLLVQVSKVPSSISQEQSRQDAIYQNLTQLKAAVGELSEKSKLQEIYQELTQLKAAVGELPEKSKLQEIYQELTRLKAAVGELPEKSKLQEIYQELTWLKAAVGELPEKSKMQEIYQELTRLKAAVGELPEKSKQQEIYQELTRLKAAVGELPEKSKQQEIYQELTRLKAAVGELPEKSKQQEIYQELTQLKAAVERLCHPCPWEWTFFQGNCYFMSNSQRNWHDSITACKEVGAQLVVIKSAEEQNFLQLQSSRSNRFTWMGLSDLNQEGTWQWVDGSPLLPSFKQYWNRGEPNNVGEEDCAEFSGNGWNDDKCNLAKFWICKKSAASCSRDEEQFLSPAPATPNPPPA
notes: whole, on cells; On transduced THP-1, HeLa and HEK 293T cells, and naturally on monocyte-derived dendritic cells; For HEK 293T the cDNA was in pcDNA3 myc-His (version A); also called CD209; DC-SIGN^+ THP-1 cells
Regarding B2, the binding result in test [4] is given as “no binding”; in test [5], “binds”.

B3: DC-SIGNR expressed on transiently transfected HEK 293T cells (receptor, human, UniProt Q9H2X3 1-399, looked up)
chain: MSDSKEPRVQQLGLLEEDPTTSGIRLFPRDFQFQQIHGHKSSTGCLGHGALVLQLLSFMLLAGVLVAILVQVSKVPSSLSQEQSEQDAIYQNLTQLKAAVGELSEKSKLQEIYQELTQLKAAVGELPEKSKLQEIYQELTRLKAAVGELPEKSKLQEIYQELTRLKAAVGELPEKSKLQEIYQELTRLKAAVGELPEKSKLQEIYQELTELKAAVGELPEKSKLQEIYQELTQLKAAVGELPDQSKQQQIYQELTDLKTAFERLCRHCPKDWTFFQGNCYFMSNSQRNWHDSVTACQEVRAQLVVIKTAEEQNFLQLQTSRSNRFSWMGLSDLNQEGTWQWVDGSPLSPSFQRYWNSGEPNNSGNEDCAEFSGSGWNDNRCDVDNYWICKKPAACFRDE
notes: whole, on cells
B3: the binding result is “binds” in test [5] and “no binding” in test [6].

The record behind these values is US20040141968A1 (published 2004).
